Experimental data reported in US11419921B2, “Methods of treating neurological disorders” (EnClear Therapies, Inc., priority 2018, dated 2022).

B1: Trypsin: protease cleaving at the carboxyl side of lysine or arginine; in Table 21 also immobilized in-house on NHS-activated agarose resin (protein, UniProt P00760 24-246, looked up)
Serine protease 1: IVGGYTCGANTVPYQVSLNSGYHFCGGSLINSQWVVSAAHCYKSGIQVRLGEDNINVVEGNEQFISASKSIVHPSYNSNTLNNDIMLIKLKSAASLNSRVASISLPTSCASAGTQCLISGWGNTKSSGTSYPDVLKCLKAPILSDSSCKSAYPGQITSNMFCAGYLEGGKDSCQGDSGGPVVCSGKLQGIVSWGSGCAQKNKPGVYTKVCNYVSWIKQTIASN
B2: Clostripain: sulfhydryl protease cleaving at the C-terminus of arginine residues; in Table 23 also immobilized on agarose resin (protein)
chain: NKNQKVTIMYYCDADNNLEGSLLNDIEEMKTGYKDSPNLNLIALVDRSPRYSSDEKVLGEDFSDTRLYKIEHNKANRLDGKNEFPEISTTSKYEANMGDPEVLKKFIDYCKSNYEADKYVLIMANHGGGAREKSNPRLNRAICWDDSNLDKNGEADCLYMGEISDHLTEKQSVDLLAFDACLMGTAEVAYQYRPGNGGFSADTLVASSPVVWGPGFKYDKIFDRIKAGGGTNNEDDLTLGGKEQNFDPATITNEQLGALFVEEQRDSTHANGRYDQHLSFYDLKKAESVKRAIDNLAVNLSNENKKSEIEKLRGSGIHTDLMHYFDEYSEGEWVEYPYFDVYDLCEKINKSENFSSKTKDLASNAMNKLNEMIVYSFGDPSNNFKEGKNGLSIFLPNGDKKYSTYYTSTKIPHWTMQSWYNSIDTVKYGLNPYGKLSWCKDGQDPEINKVGNWFELLDSWFDKTNDVTGGVNHYQW

Tested on: (GR)10
Assay: (GR)10 digestion with immobilized proteases in human cerebrospinal fluid (CSF)
Type: biochemical
Conditions: immobilized enzyme
Method: Protease solutions were prepared at 2 mg/mL in sterile PBS with calcium, magnesium and 200 μL ([…]) were applied to 100 μL of pre-washed NHS-activated agarose resin in 0.8 mL centrifuge columns. Reactions were left 1.5 hour at room temperature with end-to-end mixing, after which resins were washed with 12 resin volumes of PBS. Unreacted sites were blocked with 500 μL of 1M ethanolamine for 15 minutes at room temperature and resins were further washed with 24 resin volumes. Resins were stored at 4 degrees in 500 μL of PBS containing 0.05% sodium azide as preservative.
200 μM of (GR)10 were diluted in human cerebrospinal fluid (CSF) and 400 μL were applied to each immobilized proteases. The reaction was incubated 5 minutes at room temperature with end-to-end mixing. Columns were spun down 1 minute at 1,000 Xg to recover digested GR dipeptides. Columns were washed with 12 resin volumes of PBS. The procedure was repeated with 60 minutes digestion time. 100 μL of each samples were transferred to a clean tube, flash-frozen and subsequently used for LC/MS quantification of GR repeats of different lengths. The remaining 300 μL of each samples were flash-frozen and used to assess neuron toxicity.
(GR)10 was digested with exemplary immobilized enzymes as described above in the subsection titled “(GR)10 digestion with immobilized proteases in CSF” of Example 3. Clostripain experiments were conducted with and without DTT activation (no DTT during digestion). The results obtained after 5 and 60 minutes of reaction time are presented in Table 25 and shown in FIG. 5 (commercial and in-house immobilized trypsin), FIG. 6 (immobilized elastase, FIG. 7A (immobilized clostripain without DTT) and FIG. 7 (immobilized clostripain with 2.5 mM DTT).

| Molecule | (GR)1 (normalized uM) (5 min reaction) [µM] | (GR)2 (normalized uM) (5 min reaction) [µM] | (GR)3 (normalized uM) (5 min reaction) [µM] | (GR)4 (normalized uM) (5 min reaction) [µM] | (GR)5 (normalized uM) (5 min reaction) [µM] | (GR)6 (normalized uM) (5 min reaction) [µM] | (GR)8 (normalized uM) (5 min reaction) [µM] | (GR)10 (normalized uM) (5 min reaction) [µM] | (GR)1 (normalized uM) (60 min reaction) [µM] | (GR)2 (normalized uM) (60 min reaction) [µM] | (GR)3 (normalized uM) (60 min reaction) [µM] | (GR)4 (normalized uM) (60 min reaction) [µM] | (GR)5 (normalized uM) (60 min reaction) [µM] | (GR)6 (normalized uM) (60 min reaction) [µM] | (GR)8 (normalized uM) (60 min reaction) [µM] | (GR)10 (normalized uM) (60 min reaction) [µM] |
| --- | --- | --- | --- | --- | --- | --- | --- | --- | --- | --- | --- | --- | --- | --- | --- | --- |
| B1 | 1153.4 | 9.0 | 0.0 | 0.0 | 0.0 | 0.0 | 0.0 | 0.0 | 1182.3 | 0.0 | 0.0 | 0.0 | 0.0 | 0.0 | 0.0 | 0.0 |
| B2 | 11.2 | 10.0 | 0.0 | 0.0 | 8.5 | 0.0 | 0.0 | 395 | 106.2 | 99.2 | 72.3 | 84.7 | 85.5 | 87 | 58.4 | 0 |
